Molecular target: hERG (UniProt Q12809 1-1159)
Assay: cell-based or functional assay

Chain of hERG (Q12809 whole entry): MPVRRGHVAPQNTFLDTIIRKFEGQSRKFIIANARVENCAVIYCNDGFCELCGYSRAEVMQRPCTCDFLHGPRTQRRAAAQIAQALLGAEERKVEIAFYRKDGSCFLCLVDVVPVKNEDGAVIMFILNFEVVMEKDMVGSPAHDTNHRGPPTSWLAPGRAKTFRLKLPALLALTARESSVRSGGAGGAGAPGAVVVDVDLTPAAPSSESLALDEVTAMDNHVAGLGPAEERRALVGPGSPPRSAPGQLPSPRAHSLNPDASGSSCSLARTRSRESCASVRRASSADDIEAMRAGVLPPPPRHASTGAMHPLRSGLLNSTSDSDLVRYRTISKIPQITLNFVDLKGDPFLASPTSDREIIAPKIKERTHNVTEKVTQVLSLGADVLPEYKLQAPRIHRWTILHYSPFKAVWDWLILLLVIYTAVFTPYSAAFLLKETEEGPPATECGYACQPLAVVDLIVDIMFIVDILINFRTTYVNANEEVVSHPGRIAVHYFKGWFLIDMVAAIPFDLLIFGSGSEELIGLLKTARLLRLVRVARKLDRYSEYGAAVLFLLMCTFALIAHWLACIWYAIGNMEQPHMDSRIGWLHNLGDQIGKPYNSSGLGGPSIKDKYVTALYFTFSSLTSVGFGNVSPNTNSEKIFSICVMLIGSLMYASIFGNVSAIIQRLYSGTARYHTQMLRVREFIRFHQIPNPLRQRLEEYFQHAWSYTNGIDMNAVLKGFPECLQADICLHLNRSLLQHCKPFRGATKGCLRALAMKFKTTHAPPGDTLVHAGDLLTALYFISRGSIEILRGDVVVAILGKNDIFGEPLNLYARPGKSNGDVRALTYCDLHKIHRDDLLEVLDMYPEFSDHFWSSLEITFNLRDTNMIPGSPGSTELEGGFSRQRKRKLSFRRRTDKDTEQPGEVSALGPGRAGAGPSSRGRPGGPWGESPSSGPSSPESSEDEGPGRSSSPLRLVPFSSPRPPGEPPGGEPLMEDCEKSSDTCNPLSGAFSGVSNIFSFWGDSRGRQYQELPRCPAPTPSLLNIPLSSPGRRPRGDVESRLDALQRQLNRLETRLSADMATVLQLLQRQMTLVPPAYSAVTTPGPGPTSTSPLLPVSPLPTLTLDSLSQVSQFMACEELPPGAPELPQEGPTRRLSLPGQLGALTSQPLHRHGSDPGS

In the case of VKFNKPFVFLMIEQNTK [SP16], the “IC50 value (µM), hERG FastPatch assay” value is reported as greater than 25 µM.
